The record followed here is article PMC5943355.

For the test, the target named is Na+,HCO3- co-transporter NBCn1 (SLC4A7), native in MDCK-II cells (canine (endogenous in MDCK-II)). Put plainly: proximity ligation; in situ PLA (Duolink II) with primary antibodies against NBCn1 and RACK1 in fixed non-confluent (60-70% confluency) MDCK-II or MCF-7 cells; control with only NBCn1 antibody.

In turn, “RACK1, native in MDCK-II cells (natural protein)” returned a PLA signal, fold above the control with only NBCn1 antibody of 8 fold.
